Results: the NTF2 design screens of Basanta et al. (2020)

Assay: protease stability score; higher = more stable; yeast display proteolysis, trypsin and chymotrypsin;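 note: relative to predicted unfolded state with 0 unfolded-like and 1 meaning tenfold more protease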

Going from “DEEQELLLRIFERWLEFLLTGDEDTMHRLFDPDVKSRIGDFNHHGRELVLEAHQWFLKHARLKEFIRRDIHAINGRINMKGDVRVDVNGQEWEDHIRIHLVVVNGKMREIHIEEK” to “SEDEKLVHHAANLILEALWTGDEDTLREMVDPNVRTHINGREFHGWEESIRIILHHLNRFKNVRWHLHDQRVYGEKSHNDVRTNVDGVTLEVILILIVVDGRIRSISIEIR”, the protease stability score rises from 1.38 to 2.68.

Compared with “SDEEEILRRLMQEYYEIFFTGNEEFLHRLADPHVRFLVNGQWYHGREQFTRMFVELLEKLGAKHIELDRHTVRIIDGRIEIIIHTTIKVDGKEHTMHIIVNVEKINGRWILRSMEMEVR”, “DEEERLWEAAEYFFIHLLQTGDEEMVTKYADPHVRSDVNGVEYHGMNQFVEEWRRLVERIDHLESHHIDRVEIYNGVVTVHLRVHGEVNGKRDTFRVIIFMYKYNGQWRIHSYEFK” is lower in protease stability score: 1.34 for the first, 1.1 for the second.

Going from “SDFEEEMKESFRLWVHALMTGDEDLLVELVDPDVRLHVGDKDFHGREHFRRWVHEFILRADHHIIHLRDFDVQGDKLHLHTQVDIKVNGQRHHTRVRIIAIKVDGRWVLTQFDVI” to “DDEEHEARRVLEELIRVWITGNEELEDRLMDPNVRFVYGEYDLHGMEHFRHLLTVLKDQADHVSDVKLHDLEIQGDKVITRSVVDGVFNGRRFHRSQIIILIKVNGKWRIKSLHIH”, the protease stability score falls from 2.27 to 1.33.

Compared with “SDIDELDRELMEHTLRTIRTGDEETVHRLLDPDARTLINGREYHGREWATKMMSDWNRELGIDHLEIKHVDLINGKVRIDVKITVGDKEFHMTMVYNKVNGKWINHSIHIH”, “DEEEKRVIHIINLVEHALETGDEDLYKNLLDPDPIYNINGRILHGREFWLEFLHHMRESIEISHWHDVRSQGDKVTVHAKTTFLIRIGDKVDRVETEVRIIIVKINGRWLLHEIHHH” is higher in protease stability score: 0.409 for the first, 0.849 for the second.

Going from “SEEDEETEHITRLIFRAMVTGDWKELLDNLDPHTRVDINGRDQHGWEVMREWVERIKNVQLRIRRISVQGDKTRLDTEFRQGDKSVHVEVRITIVDGVVQHIEFKDR” to “DEWHELANEIMQLLIELWLTGDEEIVLKLADPNVKVKIIVNGRTYSNHGREMFHDWHRRVDYIHEIRIKDVTFVNGVVISDTHVDGTINGVRMRTDTKMIVVVVNGKLKSAEYRVE”, the protease stability score falls from 1.6 to 1.11.

Going from “DEDERESHNFMHEMEKAAKTGDWRKFEEMFDPDVRTIIGDKEDHGWEVAVKLFLDLGIKVLKVKRVDVVDGRLELEMELHFNGVIRKVTLRTKKVNGRWQVKELRFE” to “SEREHEVQESLEILIKLWHTGDFRAISEYADPNVRSDVNGKEFHGRENVEEALERSMKDLGVKVVHSEHIEHLEIYGNKVIVHVRIDGEVDGKRFHSHFIMYTTKVDGQWRVHEIRVH”, the protease stability score falls from 1.57 to 1.03.

Compared with “DEDHEEVEKYLKLFMKISETGNEEDIKKMADPDTRVDIGDKRHHGMEEFLHFWSHWRIHSIDIKDIEVQGEKVIITGETDVTIDGRKLRMKIIIVALKVNGKWIHKSVKFE”, “EEDEHFAESYAEIMIHSWITGNEDLFEHLADPNWRLRVGDKEFHGREEATEFLIEFYERIDHFEIHIHDMKNIGEKLFIDGELNIHVNGRTIRHHTEIVIYTINGKVKSEEVRIK” is higher in protease stability score: 1.37 for the first, 1.95 for the second.

First: DDKKQFLDHAINRLIRALLTGDWHILFRLLDPHVRMIQGDKEYHGRELWREIYFQDIQRVPNLTFLIKDYHIDLQGDKLRIEIEGELIIDGVNIHMEIISEHTKVNGRWSIHHLEIRHQ
Second: DEERKESQKALELMLELFQTGDEEELSKFADPHVRLEFRVGDKRFEIHGREEVSRFFHELIWRIKNLRLTRHNDEVQGEKVIIHFELRQGDKRSEINIIAIKINGRWFIKHETVILL
The protease stability score of the first is lower: 1.33 for the first, 1.62 for the second.

First: SEEDEVYEEALKITERLERTGNEEDLRTYADPHAKLRFIVDGKTIEIHGREDFVHEVVRYWKRFKNLTVRIERVEFQGDKLHLIGRLHIDGREVIIHMLSVKFNGRWFVENLHIEFV
Second: DDIEEILRRMTELFWRALATGDEREERELADPHVRLDVNGRTYHGMEKVREWYRRIDHHHFETWHYHHIEFQGEKVYIEGRMRVNLDINGQELRIDTFTIILMLVINGRIHRFQYQVH
The protease stability score of the first is higher: 1.41 for the first, 0.467 for the second.

First: DEEDEYYNMALEHFVKTILTGNWKRFKKLADPHVRMEIDGREHHGREEATKVFNRFDHIKNFDFRDIELQGEKIEVHGELHGTINGKDVHTSFHIIMYKVNGKWEEKEVKFQ
Second: DESEHAAKHVSELFRELVDTGDEKFHEEFADPNVRLDYGDKHYHGREIQLRIFREWRIHHIEDKDVEVQGDKIFVDGRLDGTVDGRRQHYKIILIWRKVNGRWLSTQIRFH
The protease stability score of the first is lower: 1.28 for the first, 1.59 for the second.

Going from “HEEEKHLKEMIERLYHYQLTGNWEELHRLADPHAKWHINGQDIHGMHIAVELILKEVRRIDHVDSDSKRIDMQGDKMRSNVHEIIEVGDKSIRRDSILILVIIDGRIREVSIIIL” to “DEDEKASKEFMRLVMEVLKTGDWKSLVDLADPHARLHINGREIHGREKISEILLHELDLLGFKHMEVRVHHVEVQGEKMKFDVRHSLDVNGVERHETSMIISVKFDGQWWLKEEIVK”, the protease stability score falls from 1.1 to -0.07.

First: SEDERDAQHFIELWDEAMRTGDFELLHYLMDPHTRILVNGRNLHGWEIYHKLLHEIRVKDSRSEDSRVIGDKVRVDQRVHGIVNGVETDLKTHLITEKFNGRWHYRSVEIK
Second: DDEEKRIQEASREMLEIMRTGDEERLKQMADPNARWHTKIDGQEVHRHGREEFIKIFRWVMERLGIDHVELHSIHIYNGQNDIDSRFHFDGRNHRILFIWVVYNGRLHHVRIEIQ
The protease stability score of the first is lower: -0.189 for the first, 1.58 for the second.

First: DEDKEAARHFSKILIHLMLTGDEEMIERLLDPDVKVHLVINGVHIERHGREEMIKMHRELLEQIRWKDFILRDIKVVNGVAHVDGELRREQGDKHETVRVRIDIVVINGRIRQVHIEFR
Second: SEEEEFTKLLLELLAHALRTGDESMLQYLADPNVRIDINGKELHGMEVLTHWLRRIDHIDSFFHIDHIDLVDGKLKVNGRTELIVRQGDKSHHSEWDVRIISDKVNGRWLLESISFK
The protease stability score of the first is lower: 0.404 for the first, 2.08 for the second.

Going from “SEEKRDSHQAIHLFIKNRVTGNWKDLYKNVDPHARLEIGDKHFHGRELFVRLMLELGVDHFDIESVDIQGDFIHIKGQIDVNGRTLDVELVAWKYNGRWYEHSVIIK” to “DETQELAEEIVRKMIENWLTGNEEELHKMADPHVRVHINGVDLHGREVWEKWVHDELEKIPGIRREFELKRLEIYGDYIDIDGILILTFNGRKHTHKVRIHLHIVDGKLHRLEIRNK”, the protease stability score rises from 1.16 to 1.28.

Compared with “DEDHQMATIAFHLLIESLLTGDEHTIQEMFDPRVKVNINGVELIGWEALVEHLRRIDHHSIHQWTFRDVRFYDGVLNVLGEVDFEVVFDGRRVSHRVRFHLIIFKIDGKWMTRTVEVK”, “TEEEKHLRELTDRVLHEEETGDWRTLKELADPNVRFDYRYGDYFFHSHGREDVVKHLRHVFQEMRIERVHVKDRKNYNGKVEIHTEIHGVYNGVRFRTEVTIKIVIIDGRIHSHIWEIN” is lower in protease stability score: 2.23 for the first, 0.305 for the second.

Going from “DEEEELAKEMLERFNKSLHTGDEESIERLLDPDVRVIFNGKDLIGRETVADFLKEWRMSVHTFEIRRFHSQGEKMHLDGHTEIKIHFNGKTVHLNHRVEHHMHKVNGRWTIHSIQFL” to “DEKTEEIERFFKKWVEALRTGDWKTLMELLDPNARFDINGREIIGREIYVKILKEELKHFGVTRIHNEVEIKHSDEQGNKLNLDGKLIINWDGKNDETRLILYVLKVDGRWIIEEVRIR”, the protease stability score rises from 1.18 to 1.44.

First: SEDEDAFNELLKIHVEALHTGDWRSIRELLDPNARVRIDGKEYVGRESVEEHLRRIKNLTIHEIRIDDIRIQGDYVHVDGHVRGHFNGQEELHHVEFIMLKVNGRWRIKEIRIK
Second: DEEEEFQRELVKLLVEWVHTGDWEHISKYADPHVKVHVDGRDSIGREEMRKTLKRFSDLLGADHIRFEHVRIIDGRVTIHSRVEYGDKEHHIIIQSSKIDGRWYLHSVDIR
The protease stability score of the first is higher: 2.26 for the first, 0.995 for the second.

Going from “DEDERLFEEATRLWSKLVLTGDEKRLEELMDPNVRVVIGDKVFHGREIAVKVVKELRVEHIIIRRWEIIGDKAHIRGESRGIVNGVERVSTLDLTLLKIDGRWIIESIRLE” to “DEHQERIEEVLRDILEVLETGDWRKWHRLMDPHVLLIIFINGRKLSFHGMETVISHLQHEWRRVKGLQFELKHVELQGDYIHIDGHVRFNGQQTRIEIRIDIVDGKIHQLEFKFD”, the protease stability score rises from 1.09 to 1.53.

Compared with “SEHEEDARRIFERWINSVNTGDERLIYEMHDPHVRVEINGREFHGREEIHKLAHRIDHFKIHRIIERDVRLVNGRVELHGEIDYRFFFDGKELSSIHSLHMTLTKVNGRWSIEEERVK”, “SEHEKIIVEWTRLLQEILRTGDEEMWLKLLDPHAKTHINGKDIHGMEEAARFWKELHKHMRIEDEEVRETRVVGNKAIYHMERKVNINGRTHEQEVELRVIIVDGQIKKISIHIH” is higher in protease stability score: 0.39 for the first, 0.439 for the second.

Compared with “SEEEEMIEKLIRLLVKAHETGDWDTEHELMDPHVRIDINGKEIIGREDWHEHVKRMGFKHSRVEIRIRHLTTQGEKIHIHGELRVIYDIDGRTIDRSTEVHYHLRKINGKWLITEIEIR”, “DEEERDAIHAFRDFVKNFITGNEDRIDELADPHMRSDINGVSIHGWEEFSRHTLREMKRFDHIEFRIRDIKIQGNYIHIDTEVILRVNGRTFSTRMVLIWLKVNGKWFLHEIDVR” is lower in protease stability score: 1.69 for the first, 1.35 for the second.

Going from “SEEDKEVKFFMERLNHLLLTGDEELIMEMLDPNARMTINGVDTHGRETLSKLWTDKLRHLRLKQIHIHDWRSINGRADNKGHERGFVGDKEDNWESELLFVFVNGRLKSISVHLR” to “SEDEKLMEHAFRQLLRDLETGDWHSFHHLADPTVKLDIDGREIHGRESATRVLEELWRKFGVTRVESELHSMHSQGDKLRVESKMNFNGVEYSVIIIMIKIDGRWLLHSENHK”, the protease stability score rises from 1.21 to 1.56.

First: TEDEENVIEATRIFNRVLETGDEDSLKRLLDPNVRVNFDGVELIGWEDFLKFVFEWRKKAGITQVKSEPRDMDLQGNKVHNETILHINGRTFETRLVHEKVNGRWIARSIRFS
Second: SEEEELTRITEQLMIEHLRTGDWDELQHLLDPDARLHFNGREFIGREIVIKLKLEKLRDLGMTFRDFHIKSWDSQGDKIHLRVREEVEFNGKNIELDVEIIARKVDGKWFIEQIKVR
The protease stability score of the first is higher: 1.21 for the first, 1.1 for the second.

Compared with “DENERRYNELSRLLFEWFLTGDEKMLSNFMDPNAKAEVNGKEEHGREELIRIYHDWLRKAGVDHIQPRHLETRHFDGRVHVHINVDVLINGKILHIHIDIDMVKIDGKWIIKHIRIHER”, “DEEDHHLRQIFEELLRALVTGDEEFLEQMADPRTRFILIIDGRRIEWHGREEFFRHFHEWRLRNYRITHLESYNGRIRVEGEVDENFNGKERHTKTHHTIIVINGRLHSIVLNIH” is higher in protease stability score: 1.2 for the first, 1.72 for the second.

Compared with “DEEEEREKELRERWEHFLKTGDWKKIEELADPHVRLDVGDKELVGRELFVEFIRRLLEHLGFNVFRINHIDLQGEKINMDVEREIGDKSTRVELHILKIDGQWILKRVIIN”, “DEEEEMIEKIFKHLVEALRTGDWRQLEKLFDPNVRIEIGDKHSVGREEAVKFLEEWRKRADHIEHIDFRNRRSVDGRIEIEGRHLGHIDGRLVNTRVEFEIVIVDGKIEYNRLHVL” is lower in protease stability score: 1.82 for the first, 1.58 for the second.

First: HEEEEEVKEALKELKELLETGDEDLWRRLADPDTRFELEFEGRHFHLHGWEAVLHFIREIKRRFKNVQFDWKRLNTQGNFAHMHVEIRVGDKIIHLDIIVLKYNGQWLDKRVRIFFE
Second: SEEEHVTDLALELWIRTHNTGNWHLLKRLLDPNTRVQVGNKIYHGMELISKEIFRKLLEMGFETHIEVEDSEYFEGHVRFRITIRLVVGDKEIILDTELLMIKFNGRWFITEIRIE
The protease stability score of the first is higher: 1.91 for the first, 0.686 for the second.
